Substitutions are numbered along the chain they refer to.
What was measured:
[1] = target: T1, LRP2 CR89 Y1042W V1047D R1088D (human, UniProt P98164 1022-1105); assay: solid-phase assay on coated CR protein, anti-RAP detection, A450
T1 construct: also called WDWD
T1 chain: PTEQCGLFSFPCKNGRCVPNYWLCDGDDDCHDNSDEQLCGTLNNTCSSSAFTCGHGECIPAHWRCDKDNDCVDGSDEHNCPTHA
Procedure: (§1) Solid phase binding assays-Purified, refolded CR protein (1 μg) was bound to Nunc Maxisorp™ 96-well plates in TBS pH 8 supplemented with 5 mM CaCl₂ (TBSC) overnight at 4° C. Wells were washed with TBSC and then blocked with TBSC containing 2% bovine serum albumin (BSA). […] Control wells contained no added ligand. As an additional control, to determine whether the absence of calcium affected binding, 10 mM EGTA was included in the incubation medium for some samples. […] Excess primary antibody was removed and wells washed before incubation with the secondary antibody, HRP-conjugated goat anti rabbit IgG (Bio-Rad). After washing, TMB substrate solutions (Bio-Rad) were added to detect HRP. Color development was stopped with 1N HCl. Absorption at 450 nm was measured with a microplate spectrophotometer (Molecular Devices). Data were plotted and Kd values derived by non-linear regression with the assumption of single-site binding (GraphPad Prism).
(§2) To test this idea, mutant LRP2 CR89 were prepared in which the native, non-canonical residues at these positions were sequentially substituted with the non-native, canonical residues. As defined above, the A, C, A′, C′ string for LRP2 CR89 is YVWR. Mutants included LRP2 CR89 Y1042W (WVWR), LRP2 CR89 V1047D (YDWR), LRP2 CR89 R1088D (YVWD), LRP2 CR89 V1047D R1088D (YDWD), LRP2 CR89 Y1042W V1047D R1088D (WDWD), LRP2 CR89 Y1042W V1047D (WDWR), LRP2 CR89 Y1042W R1088D (WVWD).

[2] = target: T2, LRP2 CR89 V1047D R1088D (human, UniProt P98164 1022-1105); assay: as above
T2 construct: also called YDWD
T2 sequence: T1 chain with W22Y
Procedure: as §1, §2

[3] = target: T3, LRP2 CR89 Y1042W V1047D (human, UniProt P98164 1022-1105); assay: as above
T3 construct: also called WDWR
T3 chain: T1 chain with D68R
Procedure: as §1, §2

[4] = target: T4, LRP2 CR89 Y1042W R1088D (human, UniProt P98164 1022-1105); assay: as above
T4 construct: also called WVWD
T4 chain: T1 chain with D27V
Procedure: as §1, §2

[5] = target: T5, LRP2 CR89 V1047D (human, UniProt P98164 1022-1105); assay: as above
T5 construct: also called YDWR
T5 sequence: T1 chain with W22Y, D68R
Procedure: as §1, §2

[6] = target: T6, LRP2 CR89 (human, UniProt P98164 1025-1102); assay: solid-phase assay on coated CR protein, single-site non-linear fit
T6 construct: domain: CR89; also called YVWR; L2 CR89; not shown: N-terminal hexahistidine and S-peptide tags of pET30(+)a
T6 sequence (P98164 1025-1102): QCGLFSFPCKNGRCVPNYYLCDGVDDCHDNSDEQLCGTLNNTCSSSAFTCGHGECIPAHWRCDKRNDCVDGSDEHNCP
Procedure: Data were plotted and fitted by non-linear regression with the assumption of a single binding site (GraphPad Prism). Kd values with standard deviations were derived from the regression analysis.
as §1

[7] = target: T1, LRP2 CR89 Y1042W V1047D R1088D; assay: solid-phase assay; OD at the highest ligand concentration as percent of the highest OD of all ligands
Procedure: as §1, §2

[8] = target: T2, LRP2 CR89 V1047D R1088D; assay: as above
Procedure: as §1, §2

[9] = target: T6, LRP2 CR89; assay: as above
Procedure: as §1, §2

[10] = target: T3, LRP2 CR89 Y1042W V1047D; assay: as above
Procedure: as §1, §2

[11] = target: T4, LRP2 CR89 Y1042W R1088D; assay: as above
Procedure: as §1, §2

[12] = target: T7, LRP2 CR89 R1088D (human, UniProt P98164 1022-1105); assay: as above
T7 construct: also called YVWD
Procedure: as §1, §2

[13] = target: T5, LRP2 CR89 V1047D; assay: as above
Procedure: as §1, §2

[14] = target: T8, LRP1 CR3-5 (human); assay: as above
T8 construct: range 852-973; also called L1 CR3-5
T8 sequence (Q07954 852-973): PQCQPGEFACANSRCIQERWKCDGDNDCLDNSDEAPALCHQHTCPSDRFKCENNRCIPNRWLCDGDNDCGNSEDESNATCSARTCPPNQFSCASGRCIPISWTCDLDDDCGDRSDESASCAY
Procedure: as §1

[15] = target: T6, LRP2 CR89; assay: as above; remark: listed apart in the source
Procedure: as §1

binding result [1]: no binding (tested: 100 nM)
binding result [2]: no binding (tested: 100 nM)
binding result [3]: no binding (tested: 100 nM)
binding result [4]: no binding (tested: 100 nM)
binding result [5]: no binding (tested: 100 nM)
Kd [6]: 38 nM
% max bind [7]: 1%
% max bind [8]: 3%
% max bind [9]: 100%
% max bind [10]: 3%
% max bind [11]: 4%
% max bind [12]: 55%
% max bind [13]: 11%
% max [14]: 4%
% max [15]: 88%
B1: MegaRAP1 d3 (ligand)
chain: LDRLRRVSHQGYTTEAKFEEPRVIDLWDLAQSANLTDKELEAFREELKYFKAKIEAHNHYQKQLEIAHEELRHAESVGDGERVSRSREKHALLEGRTKELGYTVKKHLQDLSGRISRAR
notes: V175L lies outside the d3 construct; also called RAPv2A d3; RAP v2 d3; not shown: N-terminal hexahistidine and S-peptide tags of pET30(+)a

Source: patent US20100210517A1 (RAPTOR PHARMACEUTICAL, published 2010)
